molecular target: T1, CTLA-4 (Homo sapiens, UniProt P16410); experiment: ELISA binding of clones after Affinity Maturation with random library (Tables 10, 11); conditions: CTLA-4 binding ELISA of clones after Affinity Maturation from random (NNS) library; signal/noise ratio; clones of 4th or 5th round
T1 sequence (P16410 36-223): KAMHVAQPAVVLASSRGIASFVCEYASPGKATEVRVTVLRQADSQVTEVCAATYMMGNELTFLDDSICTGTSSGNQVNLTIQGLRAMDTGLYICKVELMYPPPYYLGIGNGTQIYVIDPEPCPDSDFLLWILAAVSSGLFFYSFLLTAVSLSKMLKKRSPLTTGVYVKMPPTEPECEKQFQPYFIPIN
Procedure: After each round of Affinity Maturation, the cyclic peptide genes were recovered and subcloned into pET-Mal vector (FIG. 2) in the same manner as described above to perform base sequence analysis. For the 94 single colonies analyzed for sequence, E. coli transformants were inoculated into 100 μL of 2×YT medium containing ampicillin (final concentration 50 μg/mL), incubated at 37° C. for 3-5 hours (OD600=0.5-0.8), then added with IPTG (final concentration 0.5 mM) and incubated at 25° C. overnight. 10 μL of E. coli cultured medium was added with 90 μL of PBS and 40 μL of lysis reagent (20 μL BugBuster Protein Extraction Reagent (Novagen), 20 μL Lysozyme solution 2.5 mg/mL) to lyse E. coli cells for 1 hour at room temperature. The cell lysate was added with 40 μL of 12.5% skim milk solution (TBST) and blocked for 1 hour at room temperature. In parallel, antigen protein was immobilized overnight at 4° C. in 384-well plates at 100 ng/20 μL per well, and each well was washed twice with 100 μL/well of TBST, added with 100 μL/well of 5% skim milk solution (TBST) for blocking for 1 hour at room temperature, and washed twice with 100 μL/well of TBST to obtain antigen-immobilized plates. 20 μL/well of blocking-treated E. coli extract was added to the antigen-immobilized plates and gently stirred at room temperature using a plate mixer. After 1 hour, the plates were washed 5 times with 100 μL/well of TBST, 20 μL/well of anti-FLAG M2-HRP conjugate (1:2000 dilution, Sigma) was added and gently stirred on a plate mixer for 1 hour at room temperature. The plates were washed 5 times with 100 μL/well of TBST, and binding of cyclic peptides to the antigen was detected by 20 μL/well of chromogenic substrate (0.4 mg/mL 3,3′,5,5′-Tetramethyl-benzidine, 0.01% hydrogen peroxide). After 15 minutes of reaction at room temperature, the reaction was stopped with 20 μL/well of 2N HCl, and absorbance at 450 nm was measured using a plate reader (infinite F200: TECAN) (Table 5).
Oligo DNAs of a library were synthesized (see below), in which amino acid residues (positions 1, 4, 8, 10, +1 and +2) (corresponding to X1, […], X8, X10, X+1 and X+2) other than those essential or advantageous for CTLA-4 binding (2H, 3P, 5L, 6P, 7I, 9S, 11H, 12F) identified by alanine scanning were randomized (NNS).
Affinity Maturation was performed in the same manner as described above. The amount of biotinylated CTLA-4 immobilized on the magnetic beads was 10 pmol in the 1st round, 2 pmol in the 2nd round, and 1 pmol in the 3nd-5th rounds, respectively. The washing period was 2 hours for the 1st round, 19 hours for the 2nd round, 67 hours for the 3nd round, 140 hours for the 4th round, and 340 hours for the 5th round. Washing frequency was 1 time (2 hours) in the 1st round, 2 times (every 10 hours) in the 2nd round, 6 times (every 10 hours) in the 3rd round, 14 times (every 10 hours) in the 4th round, and 36 times (every 10 hours) in the 5th round.

Going from “C4m#19-5th4w-NN6-69-1 (GGCSHPFLPILSVHFCPF; C4m#19-5th4w-NN6-69-1)” to “C4m#19-5th4w-NN6-80 (GGCRHPFLPIFSWHFCAV; C4m#19-5th4w-NN6-80)”, the “ELISA S/N(SA)” value falls from 24.9 to 3.8.

Compared with “C4m#19-5th4w-NN6-37 (GGCLHPFLPISSWHFCGR; C4m#19-5th4w-NN6-37)”, “C4m3127-4th-NNS6-64 (GGCLHPYLPIVSSHFCPF; C4m3127-4th-NNS6-64) [Clone C4m3127-4th-NNS6-64]” is lower in “ELISA S/N(SA)” value: 22.7 for the first, 12.9 for the second.

Going from “C4m3127-4th-NNS6-30 (GGCWHPCLPILSPHFCPR; C4m3127-4th-NNS6-30) [Clone C4m3127-4th-NNS6-30]” to “C4m#19-5th4w-NN6-1 (GGCRHPYLPIFSAHFCRS; C4m#19-5th4w-NN6-1)”, the “ELISA S/N(SA)” value rises from 7.5 to 16.1.

Going from “C4m#19-5th2w-NNS6-8 (GGCRHPFLPIFSLHFCAR; C4m#19-5th2w-NNS6-8)” to “C4m#19-5th4w-NN6-53 (GGCRHPFLPIYSVHFCAC; C4m#19-5th4w-NN6-53)”, the “ELISA S/N(SA)” value rises from 16.5 to 32.2.

First: C4n#19-5th2w-NNS6-71 (GGCRHPYLPIASPHFCPG; left off: large carriers; small tags and cut ends)
Second: C4m#19-5th2w-NNS6-80 (GGCLHPFLPIVSWHFCPC; C4m#19-5th2w-NNS6-80)
The “ELISA S/N(SA)” value of the first is higher: 22.9 for the first, 3.6 for the second.

Compared with “C4m#19-5th2w-NNS6-22 (GGCMHPFLPIQSVHFCSR; C4m#19-5th2w-NNS6-22)”, “C4m#19-5th4w-NN6-21 (GGCWHPWLPILSPHFCPR; C4m#19-5th4w-NN6-21)” is higher in “ELISA S/N(SA)” value: 29.3 for the first, 37.5 for the second.

Compared with “C4m#19-5th4w-NN6-71 (GGCPHPWLPIASVHFCPF; C4m#19-5th4w-NN6-71)”, “C4m#19-5th2w-NNS6-21 (GGCWHPFLPIRSSHFCPS; C4m#19-5th2w-NNS6-21)” is higher in “ELISA S/N(SA)” value: 17.4 for the first, 31.1 for the second.

Going from “C4m#19-5th4w-NN6-78 (GGCWHPALPIRSWHFCPR; C4m#19-5th4w-NN6-78)” to “C4m#19-5th4w-NN6-55-4 (GGCVHPSLPILSVHFCPR; C4m#19-5th4w-NN6-55-4)”, the “ELISA S/N(SA)” value rises from 27.9 to 29.5.

First: C4m#19-5th2w-NNS6-28 (GGCAHPYLPIRSVHFCPC; C4m#19-5th2w-NNS6-28)
Second: C4m#19-5th4w-NN6-19 (GGCRHPYLPIWSIHFCQK; C4m#19-5th4w-NN6-19)
The “ELISA S/N(SA)” value of the first is lower: 6.3 for the first, 29.7 for the second.

Compared with “C4m3127-4th-NNS6-85 (GGCGHPFLPIFSSHFCPL; C4m3127-4th-NNS6-85) [Clone C4m3127-4th-NNS6-85]”, “C4m#19-5th2w-NNS6-30 (GGCWHPFLPILSWHFCGR; C4m#19-5th2w-NNS6-30)” is lower in “ELISA S/N(SA)” value: 9.1 for the first, 9.0 for the second.

First: C4m#19-5th4w-NN6-5-1 (GGCWHPYLPIQSLHFCPF; C4m#19-5th4w-NN6-5-1)
Second: C4m#19-5th4w-NN6-86 (GGCAHPVLPIRSLHFCPH; C4m#19-5th4w-NN6-86)
The “ELISA S/N(SA)” value of the first is lower: 14.7 for the first, 19.7 for the second.

Compared with “C4m#19-5th4w-NN6-83 (GGCLHPLLPILSVHFCPS; C4m#19-5th4w-NN6-83)”, “C4m#19-5th4w-NN6-32 (GGCPHPFLPIWSVHFCPF; C4m#19-5th4w-NN6-32)” is higher in “ELISA S/N(SA)” value: 12.0 for the first, 27.2 for the second.

First: C4m#19-5th2w-NNS6-14 (GGCWHPFLPIRSYHFCPW; C4m#19-5th2w-NNS6-14)
Second: C4m3127-4th-NNS6-7 (GGCRHPFLPIRSPHFCGS; C4m3127-4th-NNS6-7) [Clone C4m3127-4th-NNS6-7]
The “ELISA S/N(SA)” value of the first is higher: 34.7 for the first, 4.7 for the second.

Going from “C4m#19-5th4w-NN6-75 (GGCWHPFLPIKSVHFCCA; C4m#19-5th4w-NN6-75)” to “C4m#19-5th4w-NN6-90 (GGCRHPWLPIVSYHFCSS; C4m#19-5th4w-NN6-90)”, the “ELISA S/N(SA)” value rises from 5.6 to 21.2.

First: C4m#19-5th4w-NN6-50 (GGCKHPVLPIWSWHFCRI; C4m#19-5th4w-NN6-50)
Second: C4m#19-5th4w-NN6-36 (GGCRHPYLPIWSAHFCCR; C4m#19-5th4w-NN6-36)
The “ELISA S/N(SA)” value of the first is higher: 28.1 for the first, 5.7 for the second.

Going from “C4m#19-5th2w-NNS6-33 (GGCRHPFLPIWSFHFCWG; C4m#19-5th2w-NNS6-33)” to “C4m#19-5th2w-NNS6-46 (GGCFHPFLPIFSYHFCGL; C4m#19-5th2w-NNS6-46)”, the “ELISA S/N(SA)” value falls from 9.4 to 6.1.

First: C4m#19-5th2w-NNS6-87 (GGCLHPYLPIFSVHFCAL; C4m#19-5th2w-NNS6-87)
Second: C4m#19-5th2w-NNS6-79 (GGCRHPFLPIVSRHFCVA; C4m#19-5th2w-NNS6-79)
The “ELISA S/N(SA)” value of the first is lower: 4.5 for the first, 9.2 for the second.

Going from “C4m#19-5th4w-NN6-65 (GGCWHPFLPILSLHFCSR; C4m#19-5th4w-NN6-65)” to “C4m#19-5th4w-NN6-7 (GGCRHPFLPIWSWHFCPF; C4m#19-5th4w-NN6-7)”, the “ELISA S/N(SA)” value rises from 12.5 to 23.0.

First: C4m#19-5th4w-NN6-77 (GGCRHPFLPIVSTHFCSR; C4m#19-5th4w-NN6-77)
Second: C4m#19-5th4w-NN6-68 (GGCLHPWLPIRSRHFCSR; C4m#19-5th4w-NN6-68)
The “ELISA S/N(SA)” value of the first is higher: 30.5 for the first, 24.7 for the second.

Compared with “C4m#19-5th2w-NNS6-70 (GGCRHPFLPIVSWHFCAA; C4m#19-5th2w-NNS6-70)”, “C4m#19-5th4w-NN6-63 (GGCWHPYLPILSRHFCQA; C4m#19-5th4w-NN6-63)” is higher in “ELISA S/N(SA)” value: 5.1 for the first, 16.5 for the second.

First: C4m#19-5th4w-NN6-39 (GGCWHPFLPIRSLHFCPR; C4m#19-5th4w-NN6-39)
Second: C4m3127-4th-NNS6-28 (GGCLHPFLPIFSSHFCAL; C4m3127-4th-NNS6-28) [Clone C4m3127-4th-NNS6-28]
The “ELISA S/N(SA)” value of the first is higher: 35.6 for the first, 23.2 for the second.

First: C4m#19-5th4w-NN6-2 (GGCWHPHLPIVSSHFCLF; C4m#19-5th4w-NN6-2)
Second: C4m3127-4th-NNS6-16 (GGCWHPYLPIFSVHFCPR; C4m3127-4th-NNS6-16) [Clone C4m3127-4th-NNS6-16]
The “ELISA S/N(SA)” value of the first is higher: 18.4 for the first, 16.5 for the second.

Going from “C4m#19-5th4w-NN6-44 (GGCRHPFLPIVSWHFCGR; C4m#19-5th4w-NN6-44)” to “C4m#19-5th4w-NN6-70 (GGCMHPFLPIRSMHFCPL; C4m#19-5th4w-NN6-70)”, the “ELISA S/N(SA)” value rises from 30.1 to 35.5.

Compared with “C4m3127-4th-NNS6-72 (GGCVHPYLPISSIHFCSM; C4m3127-4th-NNS6-72) [Clone C4m3127-4th-NNS6-72]”, “C4m#19-5th4w-NN6-81 (GGCFHPYLPIRSWHFCSR; C4m#19-5th4w-NN6-81)” is higher in “ELISA S/N(SA)” value: 20.0 for the first, 32.3 for the second.

Compared with “C4m#19-5th4w-NN6-64 (GGCWHPVLPIRSVHFCCR; C4m#19-5th4w-NN6-64)”, “C4m#19-5th4w-NN6-91 (GGCMHPYLRIISPHFCRG; C4m#19-5th4w-NN6-91)” is higher in “ELISA S/N(SA)” value: 13.7 for the first, 30.0 for the second.

First: C4m#19-5th4w-NN6-20 (GGCSHPQLPILSDHFCSA; C4m#19-5th4w-NN6-20)
Second: C4m#19-5th4w-NN6-69-3 (GGCLHPWLPIVSVHFCAR; C4m#19-5th4w-NN6-69-3)
The “ELISA S/N(SA)” value of the first is higher: 30.6 for the first, 24.9 for the second.

First: C4m3127-4th-NNS6-3 (GGCSHPFLPIWSVHFCGQ; C4m3127-4th-NNS6-3) [Clone C4m3127-4th-NNS6-3]
Second: C4m3127-4th-NNS6-87 (GGCRHPWLPIVSWHFCSR; C4m3127-4th-NNS6-87) [Clone C4m3127-4th-NNS6-87]
The “ELISA S/N(SA)” value of the first is lower: 10.9 for the first, 21.4 for the second.

Compared with “C4m3127-4th-NNS6-48 (GGCFHPWLPIASWHFCGR; C4m3127-4th-NNS6-48) [Clone C4m3127-4th-NNS6-48]”, “C4m#19-5th4w-NN6-46-1 (GGCVHPALPIWSFHFCPS; C4m#19-5th4w-NN6-46-1)” is higher in “ELISA S/N(SA)” value: 13.5 for the first, 14.2 for the second.

same assay, conditions: S/N ratio of CTLA-4 binding in ELISA; clones from 4th or 5th round of Affinity Maturation from random (NNS) library

First: C4m3127-4th-NNS6-37 (GGCWHPVLPIRSIHFCGC; C4m3127-4th-NNS6-37) [Clone C4m3127-4th-NNS6-37]
Second: C4m#19-5th2w-NNS6-41 (GGCWHPVLPIRSDHFCCR; C4m#19-5th2w-NNS6-41)
The “ELISA S/N(SA)” value of the first is higher: 3.5 for the first, 3.1 for the second.
